According to paper PMC3281039, “Tetrahydrodipicolinate N-Succinyltransferase and Dihydrodipicolinate Synthase from Pseudomonas aeruginosa: Structure Analysis and Gene Deletion” (PLoS ONE, 2012):

Experiments:
[1] = biological target: T1, tetrahydrodipicolinate N-succinyltransferase (DapD, PA3666) (Pseudomonas aeruginosa, UniProt G3XD76); experiment: crystal structure at […] Å (co-crystallization), with succinate; type: binding; design: recombinant DapD; model residues 1–245 and 251–343
T1 sequence (G3XD76 1-344): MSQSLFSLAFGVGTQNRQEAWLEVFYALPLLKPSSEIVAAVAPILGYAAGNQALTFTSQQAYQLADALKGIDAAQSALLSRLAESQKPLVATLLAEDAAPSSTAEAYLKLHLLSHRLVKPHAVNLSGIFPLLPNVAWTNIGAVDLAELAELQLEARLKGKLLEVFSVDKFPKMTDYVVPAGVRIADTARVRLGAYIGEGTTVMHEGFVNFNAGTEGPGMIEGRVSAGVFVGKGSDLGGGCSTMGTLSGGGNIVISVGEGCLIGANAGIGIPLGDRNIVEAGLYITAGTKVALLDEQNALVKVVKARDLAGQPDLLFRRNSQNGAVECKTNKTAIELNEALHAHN

[2] = biological target: T1, tetrahydrodipicolinate N-succinyltransferase (DapD, PA3666); experiment: crystal structure at […] Å (soaking); IC50 in DTNB succinyltransferase assay; type: biochemical; design: recombinant DapD with Gly-Ser-His at the N-terminus after thrombin cleavage; residues 330–344 not modeled
[3] = biological target: T1, tetrahydrodipicolinate N-succinyltransferase (DapD, PA3666); experiment: crystal structure at […] Å with CoA; succinate from […] in the crystallization buffer; type: binding; design: recombinant DapD; model residues 1–245 and 251–343
[4] = biological target: Tetrahydrodipicolinate N-succinyltransferase (DapD, PA3666) from Pseudomonas aeruginosa (Pseudomonas aeruginosa PAO1); experiment: crystal structure; PaDapD, hanging drops, 19-20% PEG3350, 0.3-0.4 M succinate pH 6.2; tetragonal P4(1)2(1)2 (apo, CoA-succinate) and monoclinic P2(1) (apo, L-2AP, D-2AP) crystal forms
[5] = biological target: Tetrahydrodipicolinate N-succinyltransferase (DapD, PA3666) from Pseudomonas aeruginosa (Pseudomonas aeruginosa PAO1); experiment: SEC; analytical size exclusion chromatography, Superdex-200 10/30, 25 mM Tris-HCl pH 8.0, 150 mM NaCl; calibrated with chymotrypsinogen-A, ovalbumin, albumin, catalase, ferritin
purified protein = substrate: N[C@@H](CCCCC(=O)O)C(=O)O; experiment: purified protein; type: biochemical, Pseudomonas aeruginosa; settings: active site groove between two subunits of the homotrimer; two arginines (Arg181, Arg193), Asn209, Ala226, Glu221
[6] = biological target: the molecule itself; experiment: SEC; analytical size exclusion chromatography, Superdex-200 10/30, 25 mM Tris-HCl pH 8.0, 150 mM NaCl; calibrated with chymotrypsinogen-A, ovalbumin, albumin, catalase, ferritin

CC(C)(COP(=O)(O)OP(=O)(O)OC[C@H]1O[C@@H](n2cnc3c(N)ncnc32)[C@H](O)[C@@H]1OP(=O)(O)O)[C@@H](O)C(=O)NCCC(=O)NCCS [CoA, coenzyme A]
crystal structure at 2.40 Å (co-crystallization), with succinate [1]: Coenzyme A is bound in this narrow cleft formed at the interface of two adjacent subunits

N[C@H](CCCCC(=O)O)C(=O)O [D-2AP, D-2-aminopimelate]
IC50 [2]: > 20 mM

O=C(O)CCC(=O)O [succinate]
crystal structure at 2.40 Å with CoA; succinate from 0.4 M in the crystallizatio [3]: contains a succinate molecule bound next to the acceptor arm of the CoA in the active site cleft

Tetrahydrodipicolinate N-succinyltransferase (DapD, PA3666) from Pseudomonas aeruginosa (enzyme)
stoichiometry N [4]: 3 | stoichiometry N [5]: 3

B1: tetrahydrodipicolinate N-succinyltransferase (DapD, PA3666) (Pseudomonas aeruginosa PAO1) (protein)
chain: T1 sequence (G3XD76 1-344)
notes: recombinant DapD with Gly-Ser-His at the N-terminus after thrombin cleavage; residues 330–344 not modeled
Km (purified protein): 7.0 mM

B2: Dihydrodipicolinate synthase (DapA, PA1010) from Pseudomonas aeruginosa (enzyme, Pseudomonas aeruginosa PAO1)
chain: MIAGSMVALVTPFDAQGRLDWDSLAKLVDFHLQEGTNAIVAVGTTGESATLDVEEHIQVIRRVVDQVKGRIPVIAGTGANSTREAVALTEAAKSGGADACLLVTPYYNKPTQEGMYQHFRHIAEAVAIPQILYNVPGRTSCDMLPETVERLSKVPNIIGIKEATGDLQRAKEVIERVGKDFLVYSGDDATAVELMLLGGKGNISVTANVAPRAMSDLCAAAMRGDAAAARAINDRLMPLHKALFIESNPIPVKWALHEMGLIPEGIRLPLTWLSPRCHEPLRQAMRQTGVLA
notes: Dihydrodipicolinate synthase DapA, locus PA1010, Pseudomonas aeruginosa PAO1; the gene coding for DapA was cloned in pNIC28Bsa4 by LIC; the final model holds residues 1-291 (chain A) and 2-291 (chains B, C, D); N-terminal His6 tag with TEV site from vector pNIC28Bsa4 (GenBank EF198106); also called PaDapA; source: E. coli BL21(DE3), purified (Ni-NTA, Sephadex G-25 desalting); not shown: His6, …
stoichiometry N [6]: 2
